Measurements from patent US7713943B2, “Further use of protein kinase N beta” (Silence Therapeutics Aktiengesellschaft (AG), priority 2002, dated 2010).
Residue numbers refer to the chain shown, from its start. “Also recorded” adds a separate entry of the source. Values belong to the molecule of their own block, whether it stands above or below them.

Columns and labels:
[1] = test system: MPB (myelin basic protein); test: In vitro kinase activity of protein kinase N beta derivatives, MPB/MBP phosphorylation; type: biochemical; design: key to Activity: +: active; −: inactive; !: no “hyper activation” was observed as one might have expected from comparable mutations in other kinases (Morgan and Debond, 1994); details: for phosphorylation of MBP, 32P incorporation: immune precipitates, gamma 32P-ATP, autoradiography, FIG. 11B
Experimental: The respective fragments were transiently epressed in HeLa cells. Their relative expression was determined by Western-blot analysis of Hela cell extracts using an anti-PKNbeta antibody.
MPB is myelin basic protein which is a standard in vitro phosphorylation substrate.
As may be taken from FIG. 9A apart from the full-length protein kinase N beta only the kinase domain in its otherwise wildtype form is active in phosphorylating MPB.
The PKNbeta-derived molecules were immune-precipitated from the cell extracts shown in FIG. 10 by using anti-tag antibodies. The immune precipitates were washed as described (Klippel et al., 1996) and divided in two halfs. One half was incubated with 5 μg MBP (UBI) as a phosphorylation substrate, 4 mM MgCl2 and gamma ^32P-ATP in a buffered solution for 10 min at room temperature. In addition, phosphatase inhibitors and inhibitors against unspecifically acting kinases were added as in Klippel et al., 1998. Incorporation of radioactive phosphate was detected by autoradiography after separating the reaction products by 16% SDS-PAGE (FIG. 11B).

GST-GSK3 fusion protein = test: Non-radioactive in vitro kinase assay, anti-phospho GSK3alpha Western blot; type: biochemical; details: immune precipitates, 200 μM rATP, FIG. 11A
Experimental: The second half of the immune precipitates was incubated with 1 μg GST-GSK3 fusion protein (Cell Signaling Technology) as a phosphorylation substrate in the presence of 200 μM rATP. The reaction mixture was subsequently analyzed by 8-16% gradient SDS-PAGE and Western blotting using the anti-phospho GSK3alpha antibody (Cell Signaling Technology) (FIG. 11A).
The specificity of the in vitro phosphorylation reactions was controlled by analyzing kinase defective variants (e.g. containing mutations in the ATP binding site, see above) in parallel to active protein.
In a first step, the suitability of a non-radioactive screening formate was determined, whereby the various protein kinase N beta derivatives as already discussed in connection with example 10, were used for phosphorylating a suitable substrate. Such substrate may, for example, be MBP or a GSK3 peptide which is typically immobilised on a suitable carrier such as agarose- or sepharose beads or on plastic surfaces. In the present case and as depicted in FIG. 11A, the substrate is a GSK3-derived peptide fused to paramyosin. […] The phosphorylated substrate in the present case was detected by anti-phospho GSK3 alpha antibody (mentioned above).

B3: full length TA: full length protein kinase N beta with TA mutation at amino acid 718 (protein)
chain: MEEGAPRQPGPSQWPPEDEKEVIRRAIQKELKIKEGVENLRRVATDRRHLGHVQQLLRSSNRRLEQLHGELRELHARILLPGPGPGPAEPVASGPRPWAEQLRARHLEALRRQLHVELKVKQGAENMTHTCASGTPKERKLLAAAQQMLRDSQLKVALLRMKISSLEASGSPEPGPELLAEELQHRLHVEAAVAEGAKNVVKLLSSRRTQDRKALAEAQAQLQESSQKLDLLRLALEQLLEQLPPAHPLRSRVTRELRAAVPGYPQPSGTPVKPTALTGTLQVRLLGCEQLLTAVPGRSPAAALASSPSEGWLRTKAKHQRGRGELASEVLAVLKVDNRVVGQTGWGQVAEQSWDQTFVIPLERARELEIGVHWRDWRQLCGVAFLRLEDFLDNACHQLSLSLVPQGLLFAQVTFCDPVIERRPRLQRQERIFSKRRGQDFLRRSQMNLGMAAWGRLVMNLLPPCSSPSTISPPKGCPRTPTTLREASDPATPSNFLPKKTPLGEEMTPPPKPPRLYLPQEPTSEETPRTKRPHMEPRTRRGPSPPASPTRKPPRLQDFRCLAVLGRGHFGKVLLVQFKGTGKYYAIKALKKQEVLSRDEIESLYCEKRILEAVGCTGHPFLLSLLVCFQTSSHARFVTEFVPGGDLMMQIHEDVFPEPQARFYVACVVLGLQFLHEKKIIYRDLKLDNLLLDAQGFLKIADFGLCKEGIGFGDRTSAFCGTPEFLAPEVLTQEAYTQAVDWWALGVLLYEMLVGECPFPGDTEEEVFDCIVNMDAPYPGFLSVQGLEFIQKLLQKCPEKRLGAGEQDAEEIKVQPFFRTTNWQALLARTIQPPFVPTLCGPADLRYFEGEFTGLPPALTPPAPHSLLTARQQAAFRDFDFVSERFLEP
phosphorylation of GSK3-derived substrate (GST-GSK3 fusion protein): no | phosphorylation of MBP, 32P incorporation [1]: background activity of unspecific kinases

B4: full length KE: full length protein kinase N beta with kinase defective KE mutation at position 588 (protein)
chain: B3 chain with K588E, A718T
phosphorylation of GSK3-derived substrate (GST-GSK3 fusion protein): no | phosphorylation of MBP, 32P incorporation [1]: background activity of unspecific kinases

Now from value to molecule, other results behind:

Activity ([1]; transient overexpression in HeLa cells, MPB substrate, FIG. 9): −*
B1: ΔN comprising amino acids 288-889: protein kinase N beta derivative comprising amino acids 288-889 (protein, UniProt Q6P5Z2 288-889, looked up, fragment)
chain: CEQLLTAVPGRSPAAALASSPSEGWLRTKAKHQRGRGELASEVLAVLKVDNRVVGQTGWGQVAEQSWDQTFVIPLERARELEIGVHWRDWRQLCGVAFLRLEDFLDNACHQLSLSLVPQGLLFAQVTFCDPVIERRPRLQRQERIFSKRRGQDFLRASQMNLGMAAWGRLVMNLLPPCSSPSTISPPKGCPRTPTTLREASDPATPSNFLPKKTPLGEEMTPPPKPPRLYLPQEPTSEETPRTKRPHMEPRTRRGPSPPASPTRKPPRLQDFRCLAVLGRGHFGKVLLVQFKGTGKYYAIKALKKQEVLSRDEIESLYCEKRILEAVGCTGHPFLLSLLACFQTSSHACFVTEFVPGGDLMMQIHEDVFPEPQARFYVACVVLGLQFLHEKKIIYRDLKLDNLLLDAQGFLKIADFGLCKEGIGFGDRTSTFCGTPEFLAPEVLTQEAYTRAVDWWGLGVLLYEMLVGECPFPGDTEEEVFDCIVNMDAPYPGFLSVQGLEFIQKLLQKCPEKRLGAGEQDAEEIKVQPFFRTTNWQALLARTIQPPFVPTLCGPADLRYFEGEFTGLPPALTPPAPHSLLTARQQAAFRDFDFVSERFLEP

phosphorylation of MBP, 32P incorporation [1]: show activity | phosphorylating MPB (FIG. 9A) ([1]; transient overexpression in HeLa cells): active
B2: Full length wt: full length wildtype PKNbeta molecule (889 amino acids) (protein)
chain: B3 chain with A718T
phosphorylation of GSK3-derived substrate (GST-GSK3 fusion protein; listed as full length wildtype protein kinase N beta): suitable to phosphorylate the substrate; also recorded: show activity
